Data published in US20230051715A1 (MABWELL THERAPEUTICS, published 2023).

Experiments:
[1] = target: T1, human C1s deletion mutant 2 (NHC) (human, UniProt P09871 16-437); assay: ELISA, plate coated with 200 ng/well HuC1s(NHC), OD450nm
T1 construct: C-terminal 6xHis tag; also called HuC1s(NHC); huC1sNHC
T1 sequence: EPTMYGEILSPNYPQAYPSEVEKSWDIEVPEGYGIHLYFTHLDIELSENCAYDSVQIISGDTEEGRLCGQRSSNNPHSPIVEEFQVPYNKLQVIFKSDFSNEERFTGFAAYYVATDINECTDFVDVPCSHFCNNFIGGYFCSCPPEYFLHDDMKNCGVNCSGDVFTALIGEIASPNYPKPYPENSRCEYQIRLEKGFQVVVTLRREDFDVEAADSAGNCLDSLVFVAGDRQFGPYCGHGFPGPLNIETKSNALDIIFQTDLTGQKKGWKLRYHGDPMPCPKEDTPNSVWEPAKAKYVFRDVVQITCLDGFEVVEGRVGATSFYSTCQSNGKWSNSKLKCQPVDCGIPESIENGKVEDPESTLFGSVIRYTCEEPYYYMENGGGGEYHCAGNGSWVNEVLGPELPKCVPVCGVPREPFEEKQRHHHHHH
Experimental: (§1) ELISA was carried out by first coating 96-well plates with 200 ng/well of full-length or truncated C1s proteins overnight. The next morning, plates were blocked with SuperBlock T20 blocking buffer (Thermo Scientific 37536) for 1 h with gentle shaking. Then, various concentrations of anti-C1s antibodies diluted in SuperBlock T20 blocking buffer were added to the plates and incubated for 1 h with gentle shaking. Mouse IgG (Sigma-Aldrich 15381) and human IgG1 (BioXCell BP0297) were used as negative controls. The plates were washed before incubating with HRP conjugated secondary antibodies diluted in SuperBlock T20 blocking buffer (goat anti-mouse IgG (H+L) cross-adsorbed secondary antibody HRP (Invitrogen G-21040) or goat anti-human IgG antibody, HRP conjugate (Millipore AP309P)) for 1 h with gentle shaking. At last, the plates were washed and color developed with ELISA liquid HRP substrate (Sigma-Aldrich), followed by stopping the reaction with addition of 1M H₂SO₄ in the same volume as the ELISA liquid substrate. Bound antibody was measured by absorbance at OD₄₅₀ₙₘ.

[2] = target: T2, C1s in normal cynomolgus monkey serum (CMS, CompTech NCYS) (cynomolgus monkey, UniProt A0A2K5VQX9 16-685); assay: cell-based or functional assay
T2 sequence: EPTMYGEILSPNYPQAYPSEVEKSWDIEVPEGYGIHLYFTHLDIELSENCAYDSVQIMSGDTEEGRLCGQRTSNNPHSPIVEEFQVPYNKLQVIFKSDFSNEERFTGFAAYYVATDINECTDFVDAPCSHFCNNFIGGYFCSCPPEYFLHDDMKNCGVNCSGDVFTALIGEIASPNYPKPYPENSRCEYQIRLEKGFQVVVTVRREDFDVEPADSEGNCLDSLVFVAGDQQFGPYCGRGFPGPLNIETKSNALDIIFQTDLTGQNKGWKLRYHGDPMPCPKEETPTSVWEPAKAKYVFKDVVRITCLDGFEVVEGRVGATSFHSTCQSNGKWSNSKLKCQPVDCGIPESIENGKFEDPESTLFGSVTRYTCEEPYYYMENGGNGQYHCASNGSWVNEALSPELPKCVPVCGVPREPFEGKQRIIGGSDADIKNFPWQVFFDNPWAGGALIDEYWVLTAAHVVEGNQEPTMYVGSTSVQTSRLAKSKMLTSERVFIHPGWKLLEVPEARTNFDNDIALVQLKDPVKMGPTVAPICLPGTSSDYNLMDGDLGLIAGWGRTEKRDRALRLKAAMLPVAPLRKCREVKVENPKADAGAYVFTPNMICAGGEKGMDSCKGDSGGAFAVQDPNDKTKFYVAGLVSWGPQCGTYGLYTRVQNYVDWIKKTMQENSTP

[3] = target: T3, C1s in normal human serum (NHS, CompTech NHS) (human, UniProt P09871 16-688); assay: cell-based or functional assay
T3 sequence (looked up): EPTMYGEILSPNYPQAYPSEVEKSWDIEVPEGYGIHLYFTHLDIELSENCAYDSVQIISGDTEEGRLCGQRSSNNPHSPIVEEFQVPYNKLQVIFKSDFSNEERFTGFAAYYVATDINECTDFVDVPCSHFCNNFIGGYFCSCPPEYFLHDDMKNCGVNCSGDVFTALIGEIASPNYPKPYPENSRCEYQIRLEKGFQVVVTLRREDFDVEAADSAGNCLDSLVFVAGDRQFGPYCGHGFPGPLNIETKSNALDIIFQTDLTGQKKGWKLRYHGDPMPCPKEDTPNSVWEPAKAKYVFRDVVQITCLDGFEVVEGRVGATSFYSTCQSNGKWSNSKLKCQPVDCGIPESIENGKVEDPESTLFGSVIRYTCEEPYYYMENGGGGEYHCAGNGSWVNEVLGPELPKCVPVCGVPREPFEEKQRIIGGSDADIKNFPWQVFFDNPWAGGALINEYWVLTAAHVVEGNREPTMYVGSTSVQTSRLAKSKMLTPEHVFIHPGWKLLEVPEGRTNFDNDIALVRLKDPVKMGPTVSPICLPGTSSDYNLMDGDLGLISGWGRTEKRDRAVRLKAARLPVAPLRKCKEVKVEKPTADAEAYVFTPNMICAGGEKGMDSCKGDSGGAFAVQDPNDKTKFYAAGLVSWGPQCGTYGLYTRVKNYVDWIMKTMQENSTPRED

[4] = target: T4, full-length human C1s (produced in house) (human, UniProt P09871 16-688); assay: ELISA, plate coated with 200 ng/well full-length HuC1s, OD450nm
T4 construct: Called full-length; Partly auto-cleaved at R422-I423 on blots; also called HuC1s; Hu C1s
T4 sequence: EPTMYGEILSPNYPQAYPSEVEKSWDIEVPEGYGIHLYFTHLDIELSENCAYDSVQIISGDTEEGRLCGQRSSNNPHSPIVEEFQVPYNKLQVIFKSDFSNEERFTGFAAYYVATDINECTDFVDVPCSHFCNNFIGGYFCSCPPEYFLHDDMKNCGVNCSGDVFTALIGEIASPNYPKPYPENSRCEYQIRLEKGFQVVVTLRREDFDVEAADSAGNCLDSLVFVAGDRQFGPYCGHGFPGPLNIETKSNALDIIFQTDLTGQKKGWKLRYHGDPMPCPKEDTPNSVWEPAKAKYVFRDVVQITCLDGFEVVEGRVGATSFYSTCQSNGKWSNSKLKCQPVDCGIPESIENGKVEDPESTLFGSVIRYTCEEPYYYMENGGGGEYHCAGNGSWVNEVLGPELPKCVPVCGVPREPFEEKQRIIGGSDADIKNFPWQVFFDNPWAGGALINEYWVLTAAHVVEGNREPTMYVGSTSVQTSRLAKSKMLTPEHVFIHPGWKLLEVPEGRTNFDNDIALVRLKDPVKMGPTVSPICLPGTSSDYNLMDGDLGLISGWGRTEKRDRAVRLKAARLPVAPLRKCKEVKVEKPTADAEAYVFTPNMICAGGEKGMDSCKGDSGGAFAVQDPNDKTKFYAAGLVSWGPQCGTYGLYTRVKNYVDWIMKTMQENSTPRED
Experimental: as §1

[5] = target: T5, full-length mouse C1s (produced in house) (mouse, UniProt Q8CG14 16-688); assay: ELISA, plate coated with 200 ng/well full-length MoC1s, OD450nm
T5 construct: Called full-length; also called MoC1s; moC1s
T5 sequence: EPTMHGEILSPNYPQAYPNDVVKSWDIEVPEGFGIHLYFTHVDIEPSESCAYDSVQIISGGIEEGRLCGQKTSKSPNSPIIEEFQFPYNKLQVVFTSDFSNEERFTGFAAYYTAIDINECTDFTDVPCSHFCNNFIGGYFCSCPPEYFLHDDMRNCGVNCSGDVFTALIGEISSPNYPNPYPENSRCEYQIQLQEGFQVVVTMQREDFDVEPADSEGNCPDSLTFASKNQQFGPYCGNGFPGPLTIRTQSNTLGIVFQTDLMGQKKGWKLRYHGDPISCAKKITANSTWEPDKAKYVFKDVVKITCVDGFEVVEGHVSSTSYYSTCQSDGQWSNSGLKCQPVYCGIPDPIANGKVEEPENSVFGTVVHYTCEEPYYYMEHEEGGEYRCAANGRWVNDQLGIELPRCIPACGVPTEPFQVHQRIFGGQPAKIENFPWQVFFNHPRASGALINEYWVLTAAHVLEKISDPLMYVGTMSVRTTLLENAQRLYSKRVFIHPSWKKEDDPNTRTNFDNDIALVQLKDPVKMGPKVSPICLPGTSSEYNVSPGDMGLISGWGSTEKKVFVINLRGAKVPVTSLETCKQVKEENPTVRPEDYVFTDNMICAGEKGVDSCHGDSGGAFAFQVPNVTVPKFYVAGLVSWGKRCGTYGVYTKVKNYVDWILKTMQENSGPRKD
Experimental: as §1

[6] = target: T6, human C1s deletion mutant 1 (M151) (human) (UniProt P09871); assay: ELISA, plate coated with 200 ng/well HuC1s(M151), OD450nm
T6 sequence: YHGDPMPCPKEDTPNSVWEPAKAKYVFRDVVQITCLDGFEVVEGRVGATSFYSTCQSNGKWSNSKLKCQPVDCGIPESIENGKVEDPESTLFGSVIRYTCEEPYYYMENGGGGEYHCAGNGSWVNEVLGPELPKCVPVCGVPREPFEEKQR

B1: Anti-C1s antibody hz2-8(H1L2) (antibody, V domains shown)
VH: QVQLVQSGAEVKKPGASVKVSCKASGFNIKEYYMHWVRQAPEQGLEWMGWIDPENGDTIYAQKFQGRVTITADTSTNTAYMELSSLRSEDTAVYYCARSRLFFAYWGQGTLVTVSS
VL: DIQMTQSPKSLSASVGDRVTITCRASQDVRTALDWYQQKPGQSPKLLIYSASYRYSGVPSRFSGSGSGTDFTLTISSLQPEDFATYYCQQQYTTPYTFGQGTKLEIKR
notes: Humanized, human IgG1 / kappa
[1]
  EC50: 0.003 µg/mL
[2]
  IC50, inhibition of IgM-induced C4 deposition from CMS: 0.2 µg/mL
  IC50, inhibition of cynomolgus monkey complement-mediated lysis of EA: 0.1 µg/mL
[3]
  IC50, inhibition of IgM-induced C4 deposition from NHS: 0.2 µg/mL
  IC50, inhibition of human complement-mediated lysis of antibody-sensitized sheep erythrocytes (EA): 0.2 µg/mL
[4]
  EC50: 0.002 µg/mL
[5]
  binding result: no binding (tested: 1000 ng/ml (Log 3))
[6]
  EC50: 0.003 µg/mL
